Test results published in PMC4940161, “Time-resolved studies define the nature of toxic IAPP intermediates, providing insight for anti-amyloidosis therapeutics” (eLife, 2016).
Like-named read-outs stand apart in the source and are kept apart here. Positions of bridges follow the written chain, without caps; N, C: chain ends. No end group written: not given here.

Columns and labels:
[1] = system: rat INS-1 β-cells; experiment: Alamar Blue reduction β-cell viability assay; type: cell-based; conditions: for Toxicity to β-cells over the time course of aggregation: 20 μM peptide solutions, 14 μM final on cells, aliquots at different time points
Description: Rat INS-1 β-cells (832/13) were generously provided by Professor Newgard (Duke University). β-cells were grown in RPMI 1640 supplemented with 10% fetal bovine serum (FBS), 11 mM glucose, 10 mM Hepes, 2 mM L-glutamine, 1 mM sodium pyruvate, 50 µM β-mercaptoethanol, 100 U/ml penicillin, and 100 U/ml streptomycin.
(§1) Synthetic amyloidogenic and non-amyloidogenic IAPP peptides were dissolved in 1,1,1,3,3,3-Hexafluoro-2-propanol (HFIP) for 5–12 h, aliquoted and lyophilized to a dry powder. Amyloid formation was initiated by dissolving dry HFIP-treated peptides in 20 mM Tris HCl buffer (time-zero) at pH 7.4. Samples were incubated at 25°C, unless indicated otherwise. Aliquots were removed from the peptide solutions at designated time points over the course of amyloid formation or aggregation as schematically depicted in Figure 2A. The kinetic species populated within each of the three phases of amyloid formation were concurrently characterized by biophysical methods and biological assays assessing changes in metabolism, oxidative stress, inflammation and apoptosis using INS-1 β-cells and murine pancreatic islets.
Rat INS-1 β-cells were seeded at a density of 30,000 cells per well in 96-well plates 12–16 h prior to start of experiments. Hand purified islets were seeded at a density of 25–30 islets per well in 96-well plates. Amyloid formation and aggregation assays were initiated by dissolving IAPP peptides (15 μM to 80 μM stock solutions for dose-response experiments) in 20 mM Tris HCl (pH 7.4), unless stated otherwise. Peptide solutions were incubated at 25°C, or as indicated. Aliquots were removed from amyloid formation and aggregation assays at different time points and applied exogenously to rat INS-1 β-cells (5 h incubation) or murine pancreatic islets (10 h incubation). β-cells and islets were photographed by light microscopy immediately before and after toxicity experiments to assess changes in morphology. The final range of peptide concentrations examined in β-cell and islet toxicity assays after diluting IAPP peptide solutions into cell or islet culture was 10.5 μM to 56 μM in dose-response studies, unless indicated otherwise. Cell viability was measured by Alamar Blue reduction assays, which detect changes in metabolic function, and by morphological changes detected by light microscopy. Alamar Blue was diluted ten-fold in culture medium and incubated on β-cells or islets for 5 h at 37°C. Fluorescence (530 nm excitation and 590 nm emission) was measured with a Beckman Coulter DTX880 plate reader. Values were calculated relative to control β-cells or islets treated with buffer alone. Toxicity was defined as <80% viability. Light microscopy images were captured using an Olympus BX-61 light microscope.

[2] = Amyloid formation kinetics (thioflavin-T binding, TEM); type: physicochemical; conditions: 20 mM Tris HCl pH 7.4, 25°C; for Amyloid formation: thioflavin-T binding and TEM, 20 µM peptide (3xL-IAPP 40 µM), I26P-IAPP over 35+ h
Description: as §1
Aliquots (100 μL) were removed from amyloid formation and aggregation assays at different time points, and added to 96-well plates containing 8 μL of a 1 mM thioflavin-T solution. Fluorescence was measured using a Beckman Coulter DTX880 plate reader (445 nm excitation and 485 nm emission). Final solution conditions contained […] and 74 µM thioflavin-T (pH 7.4).
Aliquots (4 µL) were removed from amyloid formation or aggregation assays at different time points and placed on a carbon-coated 200-mesh copper grid and negatively stained with saturated uranyl acetate. The samples were imaged with a Philips CM12 or a FEI BioTwinG2 transmission electron microscope.

[3] = Photochemical induced cross-linking / SDS-PAGE oligomer distribution; type: physicochemical; conditions: 20 µM peptide, 20 mM Tris HCl pH 7.4, 25°C, at time points of h-IAPP toxicity, supernatant after 20,000 g 20 min, Tris(bipyridyl)Ru(II) cross-linking, silver stain
Description: Samples were cross-linked using Tris(bipyridyl)Ru(II), in the presence of ammonium persulfate. IAPP peptides were incubated for indicated times in 20 mM Tris HCl (pH 7.4) at 25°C. Aliquots were removed at indicated time points, centrifuged at 20,000 g for 20 min and added to the cross-linking solution. Samples contained a final concentration of 20 µM peptide, 70 µM Tris(bipyridyl)Ru(II) and 1.4 mM ammonium persulfate. Samples were illuminated with a 150 W incandescent bulb for 5 s, unless otherwise noted. The reaction was quenched by the addition of β-mercaptoethanol. The products were separated by SDS polyacrylamide gel electrophoresis using a 10–20% Tris-tricine gradient gel. Oligomer bands were visualized by silver staining (SilverXpress, Invitrogen). Quantitative analysis was carried out using GelAnalyzer software version 2010a. The relative intensity of each band was calculated by first correcting the baseline, then integrating the area under each peak.

[4] = ref Wang et al., 2014b; cited from earlier work
Excerpt: (§2) IAPP is expressed by all mammals examined to date; the amino acid sequences are ~80% conserved between species, however not all IAPP sequences are toxic or form amyloid in vivo (Figure 5—figure supplement 1) ([Betsholtz et al., 1989]; [Cao et al., 2013b]; [Westermark et al., 1990]).

[5] = system: rat INS-1 β-cells; conditions: ref Wang et al., 2014b; cited from earlier work
Excerpt: as §2

[6] = Solubility assay by ultracentrifugation; type: physicochemical; conditions: 20,000 g for 20 min; UV absorbance at 215 nm
Description: Samples of toxic lag phase intermediates or amyloid fibrils were ultracentrifuged for 20 min (20,000 g) and the protein in the soluble fraction (the supernatant) was measured by UV absorbance (215 nm) before and after ultracentrifugation using a DU 730 Life Science UV/Vis spectrophotometer (Beckman Coulter).

[7] = aliquots from peptide in 20 mM Tris HCl pH 7.4, 25°C, 14 μM (h-IAPP) or 28 μM (3xL-IAPP) final, 5 h on cells, toxicity defined as <80% viability
[8] = 1:1 addition to h-IAPP (40 µM each)

Substance: 3xL-IAPP: triple mutant of h-IAPP that lacks aromatic residues (KCNTATCATQRLANLLVHSSNNLGAILSSTNVGSNTL; ends and bridges not checked; cysteine pairing not given here; UniProt P10997 34-70, looked up, variant F15L F23L Y37L)
- β-cell viability at time point of maximum toxicity ([1]; 40 μM peptide solution (28 μM final on cells), Alamar Blue, 5 h on INS-1 β-cells, relative to buffer treated cells, mean, three replicate experiments): 67%
- Toxicity of amyloid fibrils (saturation phase) to β-cells [1, 7]: not toxic
- Toxicity of lag phase intermediates to β-cells [1, 7]: clearly still toxic
- Amyloid formation [2]: form amyloid more slowly than the human peptide

Substance: I26P-IAPP: I26P point mutant of h-IAPP; inhibitor of h-IAPP amyloid formation (KCNTATCATQRLANFLVHSSNNFGAPLSSTNVGSNTY-NH2; disulfide 2-7; ends not checked; UniProt P10997 34-70, looked up, variant I26P)
- Toxicity to β-cells over the time course of aggregation ([1]; Alamar Blue, 5 h on cells): not toxic at any time point
- Effect on duration of h-IAPP cytotoxicity ([1]; 1:1 addition to h-IAPP, 80 µM total peptide, 56 µM final on cells, time-resolved Alamar Blue): increases the duration of toxicity proportionally
- Effect on T50 of h-IAPP amyloid formation (time to 50% of total thioflavin-T signal change) [2, 8]: increased by a factor of two
- Effect on length of h-IAPP lag phase (time to 10% of total thioflavin-T signal change) [2, 8]: increased by a factor of two
- Amyloid formation [2]: non-amyloidogenic
- Distribution of oligomers in solution [3]: low order oligomers

Substance: TM-IAPP: H18R, G24P, I26P triple mutant of h-IAPP (KCNTATCATQRLANFLVRSSNNFPAPLSSTNVGSNTY-NH2; disulfide 2-7; ends not checked; UniProt P10997 34-70, looked up, variant H18R G24P I26P)
- Distribution of oligomers in solution [3]: oligomerizes
- Amyloid formation [4]: non-amyloidogenic
- Toxicity [5]: non-toxic

Substance: human islet amyloid polypeptide
- upper limit of β-sheet content: < 15%

Substance: r-IAPP: non-toxic, non-amyloidogenic rat IAPP, negative control [reference compound]
- Toxicity to β-cells over the time course of aggregation ([1]; Alamar Blue, 5 h on cells): not toxic at any time point
- Toxicity to β-cells, dose-response ([1]; 28, 56 and 84 µM peptide prepared directly in cell culture medium, 24, 48 or 96 h on cells, Alamar Blue): No detectable toxicity
- Toxicity over extended time course ([1]; 28 day time course, data not shown): not toxic over a 28 day time course
- Solubility under ultracentrifugation conditions (control) [6]: soluble
- Amyloid formation [2]: does not form amyloid fibrils
- Distribution of oligomers in solution [3]: monomers to hexamers
